Experimental data reported in ChEMBL document CHEMBL1152703, “Design and synthesis of a beta-lactamase activated 5-fluorouracil prodrug” (Bioorg Med Chem Lett, 2009).

Substrate: O=C(Cc1cccs1)N[C@@H]1C(=O)N2C(C(=O)O)=C(Cn3c(=O)[nH]cc(F)c3=O)CS[C@H]12
Test: Activity at Enterobacter cloacae P99 beta-lactamase by Michaelis-Menten equation

B1: Beta-lactamase (Enterobacter cloacae), P05364 (protein)
chain: MMRKSLCCALLLGISCSALATPVSEKQLAEVVANTITPLMKAQSVPGMAVAVIYQGKPHYYTFGKADIAANKPVTPQTLFELGSISKTFTGVLGGDAIARGEISLDDAVTRYWPQLTGKQWQGIRMLDLATYTAGGLPLQVPDEVTDNASLLRFYQNWQPQWKPGTTRLYANASIGLFGALAVKPSGMPYEQAMTTRVLKPLKLDHTWINVPKAEEAHYAWGYRDGKAVRVSPGMLDAQAYGVKTNVQDMANWVMANMAPENVADASLKQGIALAQSRYWRIGSMYQGLGWEMLNWPVEANTVVEGSDSKVALAPLPVAEVNPPAPPVKASWVHKTGSTGGFGSYVAFIPEKQIGIVMLANTSYPNPARVEAAYHILEALQ
Km: 95.4 µM | Vmax: 3.21 µmol/min/mg
